Results as given in IntAct's records for PubMed 21217698.

B1: DnaJ homolog subfamily B member 11 (Mus musculus), Q99KV1 (parent)
chain: MAPQNLSTFCLLLLYLIGTVIAGRDFYKILGVPRSASIKDIKKAYRKLALQLHPDRNPDDPQAQEKFQDLGAAYEVLSDSEKRKQYDTYGEEGLKDGHQSSHGDIFSHFFGDFGFMFGGTPRQQDRNIPRGSDIIVDLEVTLEEVYAGNFVEVVRNKPVARQAPGKRKCNCRQEMRTTQLGPGRFQMTQEVVCDECPNVKLVNEERTLEVEIEPGVRDGMEYPFIGEGEPHVDGEPGDLRFRIKVVKHRIFERRGDDLYTNVTVSLVEALVGFEMDITHLDGHKVHISRDKITRPGAKLWKKGEGLPNFDNNNIKGSLIITFDVDFPKEQLTEEAKEGIKQLLKQGPVQKVYNGLQGY

Variants of: B1
Conditions: with bip_mouse Hspa5, P20029
bip_mouse Hspa5, P20029, sequence (P20029 whole entry): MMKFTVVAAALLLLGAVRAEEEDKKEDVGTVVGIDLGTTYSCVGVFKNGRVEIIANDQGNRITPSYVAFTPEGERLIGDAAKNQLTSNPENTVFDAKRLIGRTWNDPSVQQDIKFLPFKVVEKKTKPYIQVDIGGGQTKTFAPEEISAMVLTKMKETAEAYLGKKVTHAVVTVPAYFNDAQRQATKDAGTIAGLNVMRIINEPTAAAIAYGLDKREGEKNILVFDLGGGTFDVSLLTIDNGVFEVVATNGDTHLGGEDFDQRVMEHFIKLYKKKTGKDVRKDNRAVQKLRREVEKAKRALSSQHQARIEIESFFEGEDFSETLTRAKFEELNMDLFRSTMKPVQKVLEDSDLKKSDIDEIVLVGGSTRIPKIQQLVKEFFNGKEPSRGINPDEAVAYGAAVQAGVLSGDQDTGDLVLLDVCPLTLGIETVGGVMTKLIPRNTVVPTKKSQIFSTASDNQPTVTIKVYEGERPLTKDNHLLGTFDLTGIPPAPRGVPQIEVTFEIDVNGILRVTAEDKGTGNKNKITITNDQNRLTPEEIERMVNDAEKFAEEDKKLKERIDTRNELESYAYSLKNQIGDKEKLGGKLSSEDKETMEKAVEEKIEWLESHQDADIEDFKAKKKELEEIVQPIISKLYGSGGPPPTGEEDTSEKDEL

Variant	effect of a mutation on the interaction
H53Q	disrupting interaction
